Here are results for 2 molecules from patent US20160031999A1 (CSL, published 2016).

Substitutions are numbered along the chain they refer to. Several values for one entry are separate records, joined by “and”; a condition that tells them apart may be missing. Equal entries are not always repeated.

The target in assay [1] is T1, polypeptide of SEQ ID NO: 85 (amino acids 23 to 318 of human IL-11Rα, serine at position 248, 8×HIS tag) (human, UniProt Q14626 23-318).
T1 construct: also called WT D1/2; truncated hIL-11R
T1 sequence: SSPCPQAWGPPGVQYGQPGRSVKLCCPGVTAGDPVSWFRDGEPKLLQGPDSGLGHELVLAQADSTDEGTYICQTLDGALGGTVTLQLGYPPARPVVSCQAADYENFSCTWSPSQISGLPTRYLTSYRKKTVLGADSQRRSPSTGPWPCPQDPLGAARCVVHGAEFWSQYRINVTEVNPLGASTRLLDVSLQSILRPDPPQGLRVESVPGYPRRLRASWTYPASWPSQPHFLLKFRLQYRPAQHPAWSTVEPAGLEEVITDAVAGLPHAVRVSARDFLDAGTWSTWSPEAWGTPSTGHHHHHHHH
The assay can be described thus: Biacore, antibody captured on anti-human IgG Fc, receptor injected; N = 2, both values shown. The procedure: (§1) Various point mutants of soluble forms of IL-11R were produced in which amino acids from mIL-11 were introduced into a soluble form of hIL-11 (SEQ ID NO: 85) (see Table 5 for positions of mutations relative to SEQ ID NO: 1 and for reference to the SEQ ID NO: of each polypeptide) and the binding of antibodies to those polypeptides or to polypeptides of SEQ ID NO: 3 or SEQ ID NO: 85 was determined using Biacore analysis or FACS.
(§2) Anti human IgG Fc specific antibody was chemically immobilized on a CM5 chip to ˜9000 RU. Antibodies were captured at about 0.3-1 μg/ml for 120 seconds on 2 spots in each flow cell. Adjacent spots consisting of only anti human IgG were used as a reference. IL-11 receptors were injected over the captured antibodies and reference spots at 40, 10, 5 and 2.5 nM in duplicate. Blank injections of buffer only were also performed in duplicate. Injection was performed for 3 minutes and dissociation monitored for a further 5 minutes.
For orientation: Surface plasmon resonance follows binding to a sensor surface in real time, without labels.

Assay [2] addresses T2, P65S mutant of soluble human IL-11Rα (SEQ ID NO: 97) (human, UniProt Q14626 23-318).
T2 sequence: T1 sequence with P43S, S226C
Kind of assay: Biacore, antibody captured on anti-human IgG Fc, receptor injected; mean ± SE, N = 4. As for the experimental part:
as §1, §2

For assay [3], the target named is T3, L101S mutant of soluble human IL-11Rα (SEQ ID NO: 98) (human, UniProt Q14626 23-318).
T3 sequence: T1 sequence with L79S, S226C
Described as above. As for the experimental part:
as §1, §2

Assay [4] addresses T4, K66R mutant of soluble human IL-11Rα (SEQ ID NO: 96) (human, UniProt Q14626 23-318).
T4 construct: also called K44R
T4 sequence: T1 sequence with K44R, S226C
The assay is described as above. The procedure: as §1, §2

For assay [5], the target named is T5, V117E mutant of soluble human IL-11Rα (SEQ ID NO: 95) (human, UniProt Q14626 23-318).
T5 construct: also called V95E
T5 sequence: T1 sequence with V95E, S226C
The description is as above. As for the experimental part: as §1, §2

Assay [6] has as its target T5, V117E mutant of soluble human IL-11Rα …. The assay can be described thus: Biacore, antibody captured; * indicates undetectable binding. The procedure:
as §1, §2

Assay [7] concerns the target T6, mouse IL-11Rα on transfected cells (mouse, UniProt P70225 24-424).
T6 construct: also called mIL-11Rα
T6 sequence: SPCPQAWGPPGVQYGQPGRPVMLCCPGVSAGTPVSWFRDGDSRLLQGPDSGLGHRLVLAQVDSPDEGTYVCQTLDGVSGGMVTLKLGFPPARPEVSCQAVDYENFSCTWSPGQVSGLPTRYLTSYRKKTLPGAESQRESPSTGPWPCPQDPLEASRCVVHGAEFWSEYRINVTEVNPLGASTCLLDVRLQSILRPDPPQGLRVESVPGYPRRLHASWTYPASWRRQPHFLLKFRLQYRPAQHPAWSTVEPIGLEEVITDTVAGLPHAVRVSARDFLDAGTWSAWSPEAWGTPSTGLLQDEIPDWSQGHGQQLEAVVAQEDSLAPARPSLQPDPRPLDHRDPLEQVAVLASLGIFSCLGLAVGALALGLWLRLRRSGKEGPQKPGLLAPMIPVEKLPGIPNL
Kind of assay: binding to transfected cells.

B1: antibody 8E4 (antibody, human IgG4 S228P, lambda, V domains shown)
VH: EVQLLESGGGLVQPGGSLRLSCAASGFTFSWYFMGWVRQAPGKGLEWVSYIYPSGGSTGYADSVKGRFTISRDNSKNTLYLQMHSLRAEDTAVYYCARDEGYCSSTSCYFDAFDIWGQGTMVTVSS
VL: QSALTQPPSASGSPGQSVAISCTGTSSDVGGYNFVSWYQQHPGKAPKLLIYEVTKRPSGVPDRFSGSKAGNTASLTVSGLQAEDEADYYCSSYGGSNNAGVFGTGTKVTVLG
A word on the Kd: it is a measure of binding affinity in units of concentration. A higher Kd goes with a looser complex. With B1, the Kd was 3.2 nM and 3.7 nM in assay [1]; 2.71 nM in assay [2]; 2.98 nM in assay [3]; 5.6 nM in assay [4]; 5.54 nM in assay [5].

B2: antibody 8D10 (antibody, human IgG4 S228P, kappa, V domains shown)
VH: EVQLLESGGGLVQPGGSLRLSCAASGFTFSRYMMGWVRQAPGKGLEWVSSIVPSGGITIYADSVKGRFTISRDNSKNTLYLQMNSLRAEDTAVYYCARDHMGIVATDWGQGTLVTVSS
VL: DIQMTQSPSSLSASVGDRVTITCQASQDITNYLNWYLHKPGKAPKLLIYDASNLQTGVPSRFSGSGSGTDFTFTITSLQPEDFGTYYCQQYDTLHPSFGPGTTVDIKR
With B2, the binding result in assay [6] and in assay [7] was “no binding” in each case. Also, the Kd in assay [1] was 0.57 nM and 0.69 nM; in assay [2], 0.67 nM; in assay [3] it was 0.7 nM; in assay [4] it was 1.3 nM.
